2 molecules from paper PMC10484735 can be followed below.

The test system of data set [1] is *II (gp32 N-terminal truncate) (bacteriophage T4). As to the kind of experiment: optical tweezers (koff/kon). The conditions noted are these: 15 pN tension; kon 0.0024 nM-1 s-1, koff 0.11 s-1; Optical tweezers buffer, pH and temperature not in the material (lower salt than AFM; 15 pN for Kd); AFM: 150 mM Na+, 100 uM spermidine, 37 C, 5 min.
Data set [2] relates to gp32 (WT) (bacteriophage T4). As to the kind of experiment: optical tweezers (koff/kon). The conditions noted are these: 15 pN tension; kon 0.003 nM-1 s-1; cooperative binding to bare ssDNA; Optical tweezers buffer, pH and temperature not in the material (lower salt than AFM; 15 pN for Kd); AFM: 150 mM Na+, 100 uM spermidine, 37 C, 5 min.
In data set [3] the target is Bacteriophage T4 gene 32 protein (gp32), full-length (bacteriophage T4) (UniProt P03695).
The target is the same in data set [4]. This is another data set of the same source.
Data set [5] shares this target. The source holds these as a separate data set.

The term Kd denotes the constant that tells how readily two partners part at equilibrium. As to 8.1 knt ssDNA (optical tweezers), the Kd in data set [1] worked out at 46 nM; in data set [2], 1 nM.

B1: Bacteriophage T4 gene 32 protein (gp32), full-length (natural protein)
chain: MFKRKSTAELAAQMAKLNGNKGFSSEDKGEWKLKLDNAGNGQAVIRFLPSKNDEQAPFAILVNHGFKKNGKWYIETCSSTHGDYDSCPVCQYISKNDLYNTDNKEYSLVKRKTSYWANILVVKDPAAPENEGKVFKYRFGKKIWDKINAMIAVDVEMGETPVDVTCPWEGANFVLKVKQVSGFSNYDESKFLNQSAIPNIDDESFQKELFEQMVDLSEMTSKDKFKSFEELNTKFGQVMGTAVMGGAAATAAKKADKVADDLDAFNVDDFNTKTEDDFMSSSSGSSSSADDTDLDDLLNDL
For the molecule B1, the maximal compaction of 8.1 knt ssDNA at 15 pN (optical tweezers, constant force), WT gp32 against the noncooperative truncate *II that lacks the N-terminal domain in data set [3] stood at 4 fold. In data set [4], the persistence length of the gp32–ssDNA complex (WLC fit of force-extension curves up to 5 pN, optical tweezers; plateau at gp32 ≥25 nM, up to 1 μM) stood at 20 nm. Further, in data set [5], the rate of ssDNA compaction after bimolecular binding (kc, two-step fit of k+1 against gp32 concentration at 15 pN, optical tweezers) was found to be 1.5 s^−1.
